Experimental findings from patent US20210122813A1 (Kyowa Kirin, published 2021) are described below.

B1: 18C1 chimeric antibody (antibody, V domains shown)
VH: QVQLKETGPDLVQLTQTLSITCTVSGFSLTTYNVHWVRQPPGKGLEWMGTMWNGGGIDYNSAFKSRLSISRDTSKSQVFLKMNSLQTDDTAKYFCARLGYYVDYWGHGIMVTVSS
VL: QFVLIQSNSMSTSLGSTVKLSCKRSTGNIGSSYVYWYQQHEGRSPTTMIYDGDKRPDGVPDRFSGSIDSSSNSAFLTINNVQIEDEAIYFCQSFSSGIKFIFGGGTKLTVL
notes: also called ch18C1 antibody; ch18C1
B2: VLres04HVmut04 (antibody, V domains shown)
VH: QVQLQESGPDLVQPSQTLDITCTVSGFSLTTYNVHWVRQPPGKGLEWMGTMWNGGGIDYNSAFKSRLAISRDTSKNEVFLKMDSLQTDDTAKYFCARLGYYVDYWGQGILVTVSS
VL: B1 VL with V3A, N8D, L14A, F75S, N80D, I88V
notes: Humanized 18C1 antibody; also called VLres04HVmut04 antibody; hz18C1 antibody
B3: VLres14HVmut10 (antibody, V domains shown)
VH: B2 VH with S65D, K92V
VL: B1 VL with N8D, L14A, N80D, I88V
notes: Humanized 18C1 antibody; also called VLres14HVmut10 antibody; hz18C1 antibody
B4: VLres02HVmut08 (antibody, V domains shown)
VH: B2 VH with Q13K, S65D, A68T, E77Q, K92V
VL: B1 VL with N8D, L14A, F75S, N80D, I88V
notes: Humanized 18C1 antibody; also called hz18C1 antibody; anti-BMP10 humanized antibody
B5: VLres08HVmut08 (antibody, V domains shown)
VH: B2 VH with Q13K, S65D, A68T, E77Q, K92V
VL: B1 VL with V3A, N8D, L14A, F75S, N80D, I83V
notes: as for B4
B6: VLres07VHres16 (antibody, V domains shown)
VH: B2 VH with Q5K, S7T, S15T, N76S, L110M
VL: B1 VL with V3A, N8D, K19T, F75S, N80D, I83V
notes: Humanized 18C1 antibody; also called VLres07VHres16 antibody; hz18C1 antibody
B7: VLres10HVmut10 (antibody, V domains shown)
VH: B2 VH with S65D, K92V
VL: B1 VL with N8D, L14A, F75S, I88V
notes: Humanized 18C1 antibody; also called VLres10HVmut10 antibody; hz18C1 antibody
B8: VLres14HVmut08 (antibody, V domains shown)
VH: B2 VH with Q13K, S65D, A68T, E77Q, K92V
VL: B1 VL with N8D, L14A, N80D, I88V
notes: as for B4
B9: VLres14HVmut07 (antibody, V domains shown)
VH: B2 VH with S65D, E77Q, F79S
VL: B1 VL with N8D, L14A, N80D, I88V
notes: as for B4
B10: VLres04VHres16 (antibody, V domains shown)
VH: B2 VH with Q5K, S7T, S15T, N76S, L110M
VL: B1 VL with V3A, N8D, L14A, F75S, N80D, I88V
notes: Humanized 18C1 antibody; also called VLres04VHres16 antibody; hz18C1 antibody
B11: VLres10HVmut08 (antibody, V domains shown)
VH: B2 VH with Q13K, S65D, A68T, E77Q, K92V
VL: B1 VL with N8D, L14A, F75S, I88V
notes: as for B4
B12: VLres08HVmut04 (antibody, V domains shown)
VH: B2 VH
VL: B1 VL with V3A, N8D, L14A, F75S, N80D, I83V
notes: as for B4
B13: VLres14VHres16 (antibody, V domains shown)
VH: B2 VH with Q5K, S7T, S15T, N76S, L110M
VL: B1 VL with N8D, L14A, N80D, I88V
notes: Humanized 18C1 antibody; also called VLres14VHres16 antibody; hz18C1 antibody
B14: VLres10VHres16 (antibody, V domains shown)
VH: B2 VH with Q5K, S7T, S15T, N76S, L110M
VL: B1 VL with N8D, L14A, F75S, I88V
notes: Humanized 18C1 antibody; also called VLres10VHres16 antibody; hz18C1 antibody
B15: VLres10HVmut04 (antibody, V domains shown)
VH: B2 VH
VL: B1 VL with N8D, L14A, F75S, I88V
notes: as for B4
B16: VLres16HVmut10 (antibody, V domains shown)
VH: B2 VH with S65D, K92V
VL: B1 VL with V3A, N8D, L14A, N80D, I88V
notes: as for B4
B17: VLres16VHres16 (antibody, V domains shown)
VH: B2 VH with Q5K, S7T, S15T, N76S, L110M
VL: B1 VL with V3A, N8D, L14A, N80D, I88V
notes: Humanized 18C1 antibody; also called VLres16VHres16 antibody; hz18C1 antibody
B18: VLres10HVmut02 (antibody, V domains shown)
VH: B2 VH with Q13K, A68T, E77Q
VL: B1 VL with N8D, L14A, F75S, I88V
notes: Humanized 18C1 antibody; also called VLres10HVmut02 antibody; hz18C1 antibody
B19: VLres16HVmut07 (antibody, V domains shown)
VH: B2 VH with S65D, E77Q, F79S
VL: B1 VL with V3A, N8D, L14A, N80D, I88V
notes: as for B4
B20: VLres06HVmut10 (antibody, V domains shown)
VH: B2 VH with S65D, K92V
VL: B1 VL with N8D, L14A, F75S, N80D, I83V
notes: as for B4
B21: VLres07HVmut10 (antibody, V domains shown)
VH: B2 VH with S65D, K92V
VL: B1 VL with V3A, N8D, K19T, F75S, N80D, I83V
notes: Humanized 18C1 antibody; also called VLres07HVmut10 antibody; hz18C1 antibody
B22: VLres06HVmut02 (antibody, V domains shown)
VH: B2 VH with Q13K, A68T, E77Q
VL: B1 VL with N8D, L14A, F75S, N80D, I83V
notes: as for B4
B23: VLres08VHres16 (antibody, V domains shown)
VH: B2 VH with Q5K, S7T, S15T, N76S, L110M
VL: B1 VL with V3A, N8D, L14A, F75S, N80D, I83V
notes: Humanized 18C1 antibody; also called VLres08VHres16 antibody; hz18C1 antibody
B24: VLres02HVmut07 (antibody, V domains shown)
VH: B2 VH with S65D, E77Q, F79S
VL: B1 VL with N8D, L14A, F75S, N80D, I88V
notes: as for B4
B25: 12H3 chimeric antibody (antibody, V domains shown)
VH: B1 VH with T30S, T50A, D58N, L98F, Y101G, V102F, H107Q, I109V
VL: ETVMTQSPTSMSTSIGERVTLNCKASQSVGINVDWYQRTPGQSPKLLIHGASNRHTGVPDRFTGSGFGRDFTLTISNVEAEDLTIYYCLQYGSIPLTFGAGTKLELI
notes: also called ch12H3 antibody
B26: 11H10 chimeric antibody (antibody, V domains shown)
VH: B1 VH with T50A, I57T, G99A, Y100E, Y101G, V102F, H107Q, I109V
VL: DTVMTQSPASMSTSVGERVTVNCKASQSVGTVVAWFQQKPGQSPKRLIYLATNRHTGVPDRFTGSGFGRDFTLTISNVEAEDLAVYYCLQYGSIPFTFGSGTKLEIK
notes: also called ch11H10 antibody

Numbering of substitutions follows the chain as printed.

The target of the first assay is T1, human BMP10 mature dimer (manufactured by R & D Systems, Inc., Cat #2926-BP) (human, UniProt O95393 317-424).
T1 construct: Bought product; also called human mature BMP10; mature BMP10
T1 sequence: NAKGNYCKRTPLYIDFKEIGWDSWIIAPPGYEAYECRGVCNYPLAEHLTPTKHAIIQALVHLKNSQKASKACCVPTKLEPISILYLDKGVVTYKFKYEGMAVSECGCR
Put plainly: SPR (Biacore T100), antibody captured by anti-human IgG, human BMP10 mature dimer as analyte. How it is done: (§1) The binding activity of the anti-BMP10 antibody was measured as follows. An anti-human IgG antibody was immobilized on a CMS sensor chip (manufactured by GE Healthcare Bio-Sciences, Inc., BR100530) using Human Antibody Capture Kit (manufactured by GE Healthcare Bio-Sciences Corporation, Cat #BR-1008-39) according to the attached protocol. To a flow cell in which the anti-human IgG antibody was immobilized, the antibody prepared at 5 μg/mL was added at a flow rate of 10 μL/min for 10 seconds.
(§2) Subsequently, human mature BMP10 prepared at 5 concentrations by 3-fold serial dilution from the 100 ng/mL was added thereto at a flow rate of 30 μL/min, and a binding reaction was monitored for 1 minute and a dissociation reaction was monitored for 10 minutes. The obtained sensorgram was analyzed using Bia Evaluation Software (manufactured by GE Healthcare Bio-Sciences Corporation), and the kinetic constant of each antibody was calculated. The calculated association rate constant (ka), dissociation rate constant (kd), and dissociation constant [kd/ka=KD] of each antibody are shown in Table 4.
For orientation: Kd means the constant that tells how readily two partners part at equilibrium. Low readings indicate tighter binding, high ones weaker binding. In turn, B1 came in with a dissociation constant Kd of 2.62 pM.

B2 came in with a Kd of 3.19 pM.

B3 yielded a dissociation constant (Kd) of 2.84 pM.

Molecule B4 yielded a Kd of 3.05 pM.

Turning to B5, the Kd was 2.99 pM.

As to B6, the Kd came out at 3.11 pM.

As to B7, the Kd came out at 2.19 pM.

For B8, the Kd came to 2.71 pM.

Take B9: binding was put at a Kd of 2.99 pM.

In turn, B10 yielded a Kd of 3.21 pM.

As to B11, the Kd was determined as 3.06 pM.

In the case of B12, binding was characterised by a dissociation constant (Kd) of 2.88 pM.

B13 had a Kd of 3.3 pM.

Take B14: the Kd worked out at 3.57 pM.

On to B15, for which the Kd is 3.2 pM.

In turn, B16 came in with an equilibrium dissociation constant (Kd) of 2.88 pM.

Turning to B17, the Kd was determined as 3.69 pM.

The molecule B18 yielded a Kd of 3.41 pM.

In turn, B19 gave a Kd of 3.19 pM.

In turn, B20 displayed a Kd of 2.94 pM.

Molecule B21 registered a Kd of 2.69 pM.

For B22, the Kd is 3.37 pM.

Molecule B23 showed a Kd of 3.25 pM.

The molecule B24 displayed a Kd of 2.97 pM.

The target in a further assay is T1, human BMP10 mature dimer (manufactured …). Put plainly: SPR (Biacore T100), antibody captured by anti-human IgG, human BMP10 mature dimer as analyte; 100 ng/mL top concentration, 10 minutes dissociation (Example 13, Table 4). On the procedure: as §1, §2
In general terms: SPR reads the build-up and loss of mass on a sensor chip optically.
The kon is a measure of how fast the partners come together. Lower therefore signals slower complex formation. B1 registered a kon of 3.88e+07 M⁻¹ s⁻¹.

For another assay the target is unchanged. Put plainly: SPR (Biacore T100), antibody captured by anti-human IgG, human BMP10 mature dimer as analyte. This is another data set of the same source. On the procedure: Further, subsequently, human mature BMP10 prepared at 5 concentrations by 3-fold serial dilution from 300 ng/mL was added thereto at a flow rate of 30 μL/min, and a binding reaction was monitored for 1 minute and a dissociation reaction was monitored for 30 minutes. The obtained sensorgram was analyzed using Bia Evaluation Software (manufactured by GE Healthcare Bio-Sciences Corporation), and the kinetic constant of each antibody was calculated.
Molecule B1 had a Kd of 2.62 pM.

B25 yielded a Kd of 11.8 pM.

On to B26, for which binding was characterised by a dissociation constant (Kd) of 6.26 pM.

For the next assay, the target named is human BMP10 mature dimer (manufactured by R & D Systems, Inc., Cat #2926-BP) (human) (UniProt O95393). Put plainly: SPR (Biacore T100), antibody captured by anti-mouse IgG, human BMP10 mature dimer as analyte.
“MAB2926 (clone No. 462732, R & D Systems, Inc.) (antibody)” had a Kd of 33.1 pM.
